Assay results from the RNAGym collection of RNA variant scans (doi:10.1073/pnas.2313332121).
Variants at the floor of the assay were thinned out.

B1: TPR 5TU (parent)
chain: GGAUCUUCUCGAUCUAACAAAAAAGACAAAUCUGCCACAAAGCUUGAGAGCAUCUUCGGAUGCAGAGGCGGCAGCCUUCGGUGGCGCGAUAGCGCCAACGUUCUCAACUAUGACACGCAAAACGCGUGCUCCGUUGAAUGGAGUUUAUCAUG

Variants of: B1
Test: polymerase ribozyme fitness, log enrichment relative to wild type (log ratio); higher = more active; in vitro selection for triplet polymerase activity
Method in brief: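 Both subunits of a heterodimeric triplet polymerase ribozyme were given their own mutant library, built by PCR and transcribed. Each library was annealed with a biotinylated primer, the partner subunit and triplets, incubated frozen at −7 °C, and its extended constructs gel-excised, captured on streptavidin beads and amplified by RT-PCR, all in one round done in triplicate. Fitness is the logarithm of genotype enrichment relative to wild-type enrichment, with replicates averaged by inverse-variance weighting. That logarithm is base 2, and Illumina-sequenced genotypes needed ≥10 input reads and ≥1 read per output.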

Variant | polymerase ribozyme fitness (log ratio)
A39G G83A G117U A120C G152U | -4.11
A60G C116A | 1.26
A20U G48U U61G C85G | ≤ -4.2
U15G C95U U104G U144A | -0.599
A29U U53C | ≤ -4.2
G62A G84A U135A | -1.93
A29C A49C U61A A138C | ≤ -4.2
U55A A73U C99U U145C | ≤ -4.2
A3U G92A G136C | -4
A40U A60G A66U A73G A91G C99G | ≤ -4.2
C35G C63A C93U | -4.16
G46U U77G C87U A89U C93A G124U | ≤ -4.2
A20G A21C G92A C108G | ≤ -4.2
G34A U101A | -2.82
A28G C38A C54G G88C C103A | ≤ -4.2
C69U C85G C149U | -2.74
A17U C79G C87U U144G | ≤ -4.2
U13G G84U | -3.13
C96G C114U | -2.18
U55A A89C A119C | -0.892
C96U A122C | -0.314

Variant | polymerase ribozyme fitness (log ratio)
A47C U56C G68A C125U | -4.09
G94U G100U | -3.85
A29C A52C C54U U82C U90A G136A | ≤ -4.2
C69U G136U U146C | -2.94
C18U A47C C79G G88A A91C A121U U148G | ≤ -4.2
C63A G83A U145C A150U | -0.965
C131A A138C U139G | -3.67
A122G G143A | -1.03
A26U U151C | ≤ -4.2
A39G A41G G46C C51G U56A A60C C72U A97G U111C C125A | ≤ -4.2
C75U G84U U134C | -1.39
A98G A107U | -3.24
U31G U53A A91G A122G | -3.62
A20C U61G | -1.36
C10U C27G C54U C95G C96G A110G | ≤ -4.2
A47U G84U | -1.78
C75A U90C C95U A107G U127G G141C | ≤ -4.2
A37G A41G C79A G92U C95U C123U | ≤ -4.2
C35U C51G G71U C131U | ≤ -4.2
C93A U104C | -3.27
C43U U82G U101G | -4.04

Variant | polymerase ribozyme fitness (log ratio)
A73G G92C | -0.498
C54U G83C C85G A138G | ≤ -4.2
A37C A97G | 0.477
U61C G70A | -4.13
G80C | -3.5
A21C C36A C95G | -3.86
C57G G84U | -1.79
A21C G50A A122U | -1.39
U4C U15C A22C A29U C43G U44A U45G C57U G59U C93U | ≤ -4.2
U33A U56A G94A | ≤ -4.2
A23C U45C A52C U55A C75G C76U C93A A119G G143U | -4.17
C5G A24U G81C | -0.313
A91G G140A | -4.12
G59A A107U G126A | -3.68
A22C A47C A73U G83U G84A C95U C103G C116U G140C | ≤ -4.2
C14U U55A C85G C93U C96A U102A A115G | ≤ -4.2
A19C C125U | 0.16
U55G U56A C93A C114A | ≤ -4.2
C36A C93A C105G C125A | ≤ -4.2
C57U G86A A98U | -1.55
A28G U53A G84U G140A | ≤ -4.2

Variant | polymerase ribozyme fitness (log ratio)
U15C A24C C93U G128U G140A U144C | ≤ -4.2
U15A G83U | -0.19
C95U G141U | 0.762
A60G G67A U78G C96G A120U G140U A147G | ≤ -4.2
U45A C114U | -4.01
U56A C149A | -3.67
A91G C118U | -3.15
C63U G80A A97G A110G | -4.19
A52C C57U | -1.24
C8G C57A G84U C114U U148C A150C | ≤ -4.2
A12U G92U C125U | -1.06
A3C G58U C76U G84A C85U G94A | -2.53
A41C U135C | -3.55
C108A A121U | ≤ -4.2
U53G C54G C96G C114U | ≤ -4.2
A19C U53G C85U G92A C103A G141C | ≤ -4.2
A41U G86U C125U U127G | -4.16
U9C C27U G84U G126U | ≤ -4.2
U7A G58C | -3.68
G48C C96G C103G C105G A106G | -3.96
G83U A89G C103A C108G U134C A142C | ≤ -4.2
